Reference: article PMC11063955, “A multiplexed time-resolved fluorescence resonance energy transfer ultrahigh-throughput screening assay for targeting the SMAD4–SMAD3–DNA complex” (Journal of Molecular Cell Biology, 2023)

Columns and labels:
Conditions in all cases: remark: other sources report otherwise
[1] = target: T1, His-tagged SMAD4 WT (Mothers against decapentaplegic homolog 4), Q13485; test: AlphaScreen or HTRF; multiplexed TR-FRET, PPI read-out (Tb-D2), lysate of HEK293T cells co-expressing His-SMAD4 and Flag-SMAD3 with point-mutated 5'-FAM-SBE4 Mut dsDNA in place of the WT dsDNA
T1 chain: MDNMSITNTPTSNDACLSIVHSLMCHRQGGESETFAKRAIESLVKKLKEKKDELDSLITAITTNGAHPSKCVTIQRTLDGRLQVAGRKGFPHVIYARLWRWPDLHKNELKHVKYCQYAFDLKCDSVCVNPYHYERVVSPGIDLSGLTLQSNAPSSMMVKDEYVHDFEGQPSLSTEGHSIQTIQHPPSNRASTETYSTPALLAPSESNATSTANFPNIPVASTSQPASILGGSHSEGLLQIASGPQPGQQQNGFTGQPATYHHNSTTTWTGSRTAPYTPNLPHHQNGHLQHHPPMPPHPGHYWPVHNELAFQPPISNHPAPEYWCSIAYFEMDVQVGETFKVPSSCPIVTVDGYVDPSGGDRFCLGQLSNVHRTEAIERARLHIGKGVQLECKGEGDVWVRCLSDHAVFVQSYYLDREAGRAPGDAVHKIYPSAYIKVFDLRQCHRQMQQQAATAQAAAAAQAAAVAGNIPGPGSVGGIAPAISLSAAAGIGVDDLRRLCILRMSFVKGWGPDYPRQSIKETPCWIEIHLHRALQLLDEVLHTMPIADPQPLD

[2] = target: T2, His-tagged SMAD4 R361C, Q13485; test: AlphaScreen or HTRF; multiplexed TR-FRET, PPI read-out (Tb-D2), lysate of HEK293T cells co-expressing His-SMAD4 and Flag-SMAD3 (WT or mutated) with 5'-FAM-SBE4 WT dsDNA; anti-FLAG M2-Tb cryptate and anti-6xHis-D2 antibodies; FRET buffer 20 mM Tris-HCl pH 7.0, 50 mM NaCl, 0.01% NP-40; 4°C for 30 min
T2 chain: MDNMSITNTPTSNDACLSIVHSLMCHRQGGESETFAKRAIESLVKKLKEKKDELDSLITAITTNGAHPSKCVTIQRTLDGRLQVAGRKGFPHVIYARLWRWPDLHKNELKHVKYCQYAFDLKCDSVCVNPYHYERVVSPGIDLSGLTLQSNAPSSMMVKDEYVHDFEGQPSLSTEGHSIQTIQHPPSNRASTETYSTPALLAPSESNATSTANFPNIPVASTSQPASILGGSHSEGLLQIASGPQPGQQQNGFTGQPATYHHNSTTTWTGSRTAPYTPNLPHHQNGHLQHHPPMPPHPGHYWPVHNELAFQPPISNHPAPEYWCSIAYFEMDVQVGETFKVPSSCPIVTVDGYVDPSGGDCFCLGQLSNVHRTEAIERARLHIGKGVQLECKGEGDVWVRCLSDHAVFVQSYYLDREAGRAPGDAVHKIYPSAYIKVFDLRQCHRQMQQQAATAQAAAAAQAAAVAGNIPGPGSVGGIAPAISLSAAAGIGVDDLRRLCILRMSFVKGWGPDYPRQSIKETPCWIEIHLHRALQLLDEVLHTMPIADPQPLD

[3] = target: T3, His-tagged SMAD4 R361H, Q13485; test: as above
T3 chain: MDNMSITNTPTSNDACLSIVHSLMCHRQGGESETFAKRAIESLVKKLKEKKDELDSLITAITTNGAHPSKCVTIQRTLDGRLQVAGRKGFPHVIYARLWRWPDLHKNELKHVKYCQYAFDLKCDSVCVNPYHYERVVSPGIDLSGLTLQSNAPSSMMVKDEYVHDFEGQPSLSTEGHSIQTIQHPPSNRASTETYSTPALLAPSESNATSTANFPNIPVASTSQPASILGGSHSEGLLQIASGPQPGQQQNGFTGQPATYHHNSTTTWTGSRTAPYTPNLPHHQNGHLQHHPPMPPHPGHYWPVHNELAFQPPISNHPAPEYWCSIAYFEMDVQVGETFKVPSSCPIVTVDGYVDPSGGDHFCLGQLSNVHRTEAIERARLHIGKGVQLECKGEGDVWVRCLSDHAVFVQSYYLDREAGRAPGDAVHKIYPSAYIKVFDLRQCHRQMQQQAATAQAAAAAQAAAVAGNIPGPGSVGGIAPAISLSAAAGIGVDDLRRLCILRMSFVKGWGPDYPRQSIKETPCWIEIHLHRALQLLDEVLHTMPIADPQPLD

B1: Flag-tagged SMAD3 WT, P84022 1-425 (natural protein)
chain: MSSILPFTPPIVKRLLGWKKGEQNGQEEKWCEKAVKSLVKKLKKTGQLDELEKAITTQNVNTKCITIPRSLDGRLQVSHRKGLPHVIYCRLWRWPDLHSHHELRAMELCEFAFNMKKDEVCVNPYHYQRVETPVLPPVLVPRHTEIPAEFPPLDDYSHSIPENTNFPAGIEPQSNIPETPPPGYLSEDGETSDHQMNHSMDAGSPNLSPNPMSPAHNNLDLQPVTYCEPAFWCSISYYELNQRVGETFHASQPSMTVDGFTDPSNSERFCLGLLSNVNRNAAVELTRRHIGRGVRLYYIGGEVFAECLSDSAIFVQSPNCNQRYGWHPATVCKIPPGCNLKIFNNQEFAALLAQSVNQGFEAVYQLTRMCTIRMSFVKGWGAEYRRQTVTSTPCWIELHLNGPLQWLDKVLTQMGSPSIRCSSVS
Work on B1 yielded a decrease of the PPI signal with 5'-FAM-SBE4 Mut dsDNA against WT dsDNA [1] of 15%, a reduction of the PPI signal against SMAD4 WT [2] of 75% and a reduction of the PPI signal against SMAD4 WT [3] of 75%.
